Assay results from publication PMC10590968, “Deciphering the role of recurrent FAD-dependent enzymes in bacterial phosphonate catabolism” (iScience, 2023).

Key:
[1] = biological target: T1, PbfD2 (Mariniblastus fucicola, UniProt A0A5B9PNB8); assay: UV-vis spectra of bound flavin; cofactor released by heat or SDS; format: binding; conditions: noncovalent; 10 μM FAD added at lysis; 50 mM TEA-HCl pH 8.0
T1 construct: gene pbfD; noncovalent FAD
T1 sequence (A0A5B9PNB8 1-373): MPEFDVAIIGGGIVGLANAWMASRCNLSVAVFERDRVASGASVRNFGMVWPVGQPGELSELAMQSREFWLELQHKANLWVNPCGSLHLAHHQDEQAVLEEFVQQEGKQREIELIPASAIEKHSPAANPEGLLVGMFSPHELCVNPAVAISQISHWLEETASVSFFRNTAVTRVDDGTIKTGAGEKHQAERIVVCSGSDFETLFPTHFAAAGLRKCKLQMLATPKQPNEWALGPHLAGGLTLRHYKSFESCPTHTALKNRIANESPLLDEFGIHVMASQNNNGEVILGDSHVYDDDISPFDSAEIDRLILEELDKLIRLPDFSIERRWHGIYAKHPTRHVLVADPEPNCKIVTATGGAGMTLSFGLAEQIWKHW

[2] = biological target: T2, PbfC (Azospirillum sp. B510, UniProt P0DY71); assay: as above; format: binding; conditions: noncovalent; 10 μM FAD added during purification; 50 mM TEA-HCl pH 8.0
T2 construct: synthetic codon-optimised gene in pET28a, N-terminal His tag, expressed in E. coli Tuner (DE3), HisTrap and SEC; noncovalent FAD
T2 sequence (P0DY71 1-415): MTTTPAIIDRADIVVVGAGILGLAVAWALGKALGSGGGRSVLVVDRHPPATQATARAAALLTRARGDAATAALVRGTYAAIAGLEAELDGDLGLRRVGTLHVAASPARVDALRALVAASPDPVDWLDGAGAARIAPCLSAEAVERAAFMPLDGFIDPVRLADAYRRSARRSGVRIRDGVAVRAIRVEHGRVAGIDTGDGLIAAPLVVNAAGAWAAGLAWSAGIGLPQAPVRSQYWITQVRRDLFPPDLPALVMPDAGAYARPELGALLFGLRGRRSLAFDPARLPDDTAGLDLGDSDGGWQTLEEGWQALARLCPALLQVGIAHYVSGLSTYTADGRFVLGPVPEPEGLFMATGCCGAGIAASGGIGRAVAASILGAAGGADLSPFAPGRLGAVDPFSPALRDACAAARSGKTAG

[3] = biological target: T3, PbfD1 (Acinetobacter baumannii, UniProt P0DY72); assay: as above; format: binding; conditions: noncovalent; 10 μM FAD added at lysis; 50 mM TEA-HCl pH 8.0
T3 construct: gene pbfD; synthetic codon-optimised gene in pET28a, N-terminal His tag, expressed in E. coli Tuner (DE3), HisTrap; noncovalent FAD
T3 sequence (P0DY72 1-384): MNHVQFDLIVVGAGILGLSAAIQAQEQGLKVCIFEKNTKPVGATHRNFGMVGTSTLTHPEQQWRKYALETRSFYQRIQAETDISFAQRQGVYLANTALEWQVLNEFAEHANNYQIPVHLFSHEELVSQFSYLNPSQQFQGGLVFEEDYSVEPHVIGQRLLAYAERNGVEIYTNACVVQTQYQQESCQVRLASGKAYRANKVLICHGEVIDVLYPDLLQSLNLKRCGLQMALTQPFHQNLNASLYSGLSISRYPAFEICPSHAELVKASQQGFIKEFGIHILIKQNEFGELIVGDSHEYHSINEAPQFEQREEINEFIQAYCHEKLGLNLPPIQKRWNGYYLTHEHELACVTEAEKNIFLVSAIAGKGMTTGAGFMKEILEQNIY

[4] = substrate: NCCP(=O)(O)O; assay: purified protein
[5] = substrate: CNCCP(=O)(O)O; assay: purified protein
[6] = substrate: CN(C)CCP(=O)(O)O; assay: coupled PhnX-ADH assay, NADH A340, Michaelis-Menten fit; format: biochemical, Acinetobacter baumannii; conditions: air-saturated (~0.25 mM O2), 50 mM TEA-HCl pH 8.0, 2.5 mM MgCl2, 25°C
From the text: (§1) coupled PhnX-ADH assay, NADH A340, Michaelis-Menten fit on PbfD1

[7] = substrate: NCCP(=O)(O)O; assay: as above; format: biochemical, Acinetobacter baumannii; conditions: air-saturated (~0.25 mM O2), 50 mM TEA-HCl pH 8.0, 2.5 mM MgCl2, 25°C
From the text: as §1

[8] = substrate: CNCCP(=O)(O)O; assay: as above; format: biochemical, Acinetobacter baumannii; conditions: air-saturated (~0.25 mM O2), 50 mM TEA-HCl pH 8.0, 2.5 mM MgCl2, 25°C
From the text: as §1

[9] = 80 μM DCPIP, 3 mM PMS, 50 mM TEA-HCl pH 8.0, 25°C
[10] = air-saturated (~0.25 mM O2), 50 mM TEA-HCl pH 8.0, 2.5 mM MgCl2, 25°C

Cc1cc2nc3c(=O)[nH]c(=O)nc-3n(C[C@H](O)[C@H](O)[C@H](O)COP(=O)(O)OP(=O)(O)OC[C@H]3O[C@@H](n4cnc5c(N)ncnc54)[C@H](O)[C@@H]3O)c2cc1C [FAD]
UV-vis spectra of bound flavin; cofactor released by heat or SDS [1]: the spectrum of the released cofactor was typical of FAD | UV-vis spectra of bound flavin; cofactor released by heat or SDS [2]: the spectrum of the released cofactor was typical of FAD | UV-vis spectra of bound flavin; cofactor released by heat or SDS [3]: the spectrum of the released cofactor was typical of FAD

B1: PbfC (Azospirillum sp. B510) (protein)
chain: MTTTPAIIDRADIVVVGAGILGLAVAWALGKALGSGGGRSVLVVDRHPPATQATARAAALLTRARGDAATAALVRGTYAAIAGLEAELDGDLGLRRVGTLHVAASPARVDALRALVAASPDPVDWLDGAGAARIAPCLSAEAVERAAFMPLDGFIDPVRLADAYRRSARRSGVRIRDGVAVRAIRVEHGRVAGIDTGDGLIAAPLVVNAAGAWAAGLAWSAGIGLPQAPVRSQYWITQVRRDLFPPDLPALVMPDAGAYARPELGALLFGLRGRRSLAFDPARLPDDTAGLDLGDSDGGWQTLEEGWQALARLCPALLQVGIAHYVSGLSTYTADGRFVLGPVPEPEGLFMATGCCGAGIAASGGIGRAVAASILGAAGGADLSPFAPGRLGAVDPFSPALRDACAAARSGKTAG
Km [4, 9]: 20 ± 1.7 mM | kcat [4, 9]: 2.2 ± 0.1 s⁻¹ | kcat/Km [4, 9]: 110 ± 6 M⁻¹ s⁻¹ | Km [5, 9]: 0.20 ± 0.01 mM | kcat [5, 9]: 9 ± 0.2 s⁻¹ | kcat/Km [5, 9]: 45000 ± 2700 M⁻¹ s⁻¹

B2: PbfD1 (Acinetobacter baumannii) (protein)
chain: MNHVQFDLIVVGAGILGLSAAIQAQEQGLKVCIFEKNTKPVGATHRNFGMVGTSTLTHPEQQWRKYALETRSFYQRIQAETDISFAQRQGVYLANTALEWQVLNEFAEHANNYQIPVHLFSHEELVSQFSYLNPSQQFQGGLVFEEDYSVEPHVIGQRLLAYAERNGVEIYTNACVVQTQYQQESCQVRLASGKAYRANKVLICHGEVIDVLYPDLLQSLNLKRCGLQMALTQPFHQNLNASLYSGLSISRYPAFEICPSHAELVKASQQGFIKEFGIHILIKQNEFGELIVGDSHEYHSINEAPQFEQREEINEFIQAYCHEKLGLNLPPIQKRWNGYYLTHEHELACVTEAEKNIFLVSAIAGKGMTTGAGFMKEILEQNIY
notes: synthetic codon-optimised gene in pET28a, N-terminal His tag, expressed in E. coli Tuner (DE3), HisTrap; noncovalent FAD
Km [6]: 54 ± 14 mM | kcat [6]: 22 ± 4.5 s⁻¹ | kcat/Km [6]: 400 ± 26 M⁻¹ s⁻¹ | Km [7]: 71 ± 16 mM | kcat [7]: 9.1 ± 1.7 s⁻¹ | kcat/Km [7]: 130 ± 6 M⁻¹ s⁻¹ | Km [8]: 5.8 ± 0.62 mM | kcat [8]: 13.2 ± 0.54 s⁻¹ | kcat/Km [8]: 2300 ± 160 M⁻¹ s⁻¹

B3: PbfD2 (Mariniblastus fucicola) (protein)
chain: MPEFDVAIIGGGIVGLANAWMASRCNLSVAVFERDRVASGASVRNFGMVWPVGQPGELSELAMQSREFWLELQHKANLWVNPCGSLHLAHHQDEQAVLEEFVQQEGKQREIELIPASAIEKHSPAANPEGLLVGMFSPHELCVNPAVAISQISHWLEETASVSFFRNTAVTRVDDGTIKTGAGEKHQAERIVVCSGSDFETLFPTHFAAAGLRKCKLQMLATPKQPNEWALGPHLAGGLTLRHYKSFESCPTHTALKNRIANESPLLDEFGIHVMASQNNNGEVILGDSHVYDDDISPFDSAEIDRLILEELDKLIRLPDFSIERRWHGIYAKHPTRHVLVADPEPNCKIVTATGGAGMTLSFGLAEQIWKHW
Km [4, 10]: 2.6 ± 0.32 mM | kcat [4, 10]: 8.9 ± 0.3 s⁻¹ | kcat/Km [4, 10]: 3400 ± 320 M⁻¹ s⁻¹ | Km [5, 10]: 0.36 ± 0.02 mM | kcat [5, 10]: 4.9 ± 0.07 s⁻¹ | kcat/Km [5, 10]: 13500 ± 550 M⁻¹ s⁻¹
